# B1: S2H97 (antibody, V domains shown)
# VH: QVRLVQSGAEVKKSGESLKISCKGSGYSFTSYWIGWVRQMPGKGLEWMGIIYPGDSDTRYSPSFQGQVTISADKSISTVYLQWSSLKASDTAMYYCARQWSHYTYDYYYWGQGTLVTISS
# VL: QSVLTQPASVSGSPGQSITISCTGISSDVGGYNSVSWYQQHPGKAPKLMIYDVTNRPSGVSNRFSGSKSGNTASLTISGLQAEDEADYYCSSYTSSSTPPYVFGTGTKVSVL
# Target: recombinant RBD protein of SARS-CoV (SARS-CoV (2003), strain of the bought …, UniProt P59594)
# Assay: SPR
binder,measurement,value
B1,binding result,binds
